Two molecules from PMC10454306, “Genome-Wide Identification of GmSPS Gene Family in Soybean and Expression Analysis in Response to Cold Stress” can be followed below.

The series concerns the target T1, GmICE1 conserved domain (GmICE1-His) (Glycine max, UniProt B8XJY5 275-465).
T1 sequence: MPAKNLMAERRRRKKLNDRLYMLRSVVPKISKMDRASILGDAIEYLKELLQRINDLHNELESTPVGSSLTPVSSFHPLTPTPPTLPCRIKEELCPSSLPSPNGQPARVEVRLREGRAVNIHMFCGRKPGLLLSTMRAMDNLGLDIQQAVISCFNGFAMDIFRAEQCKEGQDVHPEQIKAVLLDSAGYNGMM
Kind of series: EMSA; weakened dose-dependently by unlabeled same-sequence competitor; EMSA kit (Thermo Fisher Scientific); buffer, salt, pH and temperature not stated. The conditions noted are these: protein: recombinant; tags: His (PET-32a vector); chain copies: 2; label: biotin (forward strand); blunt. A general note: Mobility shift assays separate free from complexed probe on a gel.

B1: GmSPS18 promoter 50 bp probe (-68 to -117) (dsDNA)
DNA 1: GTCTACACGTGTGTATCTCCATGCCCCACCATTCCTGCCACGTGGCAGTG
DNA 2: CACTGCCACGTGGCAGGAATGGTGGGGCATGGAGATACACACGTGTAGAC
Regarding B1, the binding result is recorded as “binds”.

B2: GmSPS8 promoter 50 bp probe (-66 to -115) (dsDNA)
DNA 1: AGTCTACACGTGTGTATCTCCATGGCCCACCATTCCTTGCCACGTGTCAA
DNA 2: TTGACACGTGGCAAGGAATGGTGGGCCATGGAGATACACACGTGTAGACT
Consider B2, for which the binding result is recorded as “binds”.
